From patent US12559863B2, “Macrocyclic modulators of disease associated protein misfolding and aggregation” (RESQ BIOTECH, priority 2017, dated 2026)

Key:
[1] = target: T1, Aβ42-GFP (Homo sapiens, UniProt P05067); test: High-throughput sequencing of pSICLOPPS vectors isolated after bacterial sorting for enhanced Aβ42-GFP fluorescence; conditions: for Number of reads: after second round of sorting; for Normalized read number (%): Table 3, cyclo-TXXR tetrapeptides
T1 construct: a chimeric fusion of the human Aβ(1-42) peptide (Aβ42) with GFP; expressed in transfected cells; host or cells: E. coli BL21(DE3)
How it was run: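 Peptide inserts recovered from repeatedly sorted high-GFP clones were sequenced on Ion Torrent, excluding stop-codon-containing reads. Sorting used BL21(DE3) cells carrying pETAβ42-GFP plus the tetra-, penta- and hexapeptide pSICLOPPS library. Peptide production was induced with 0.002% L-arabinose and the reporter with 0.1 mM IPTG at OD600 ~0.5, at 37° C.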

[2] = target: T2, SOD1(A4V)-GFP (Homo sapiens, UniProt P00441, A5V); test: Fluorescence of E. coli cells co-expressing SOD1(A4V)-GFP and cyclic peptide; format: cell-based; conditions: co-expression of cyclic peptide; compared to random cyclic peptides from initial library
T2 construct: polyHis; expressed in transfected cells; host or cells: E. coli Origami 2(DE3) (BL21(DE3) for the FACS screen)
Source text: Electrocompetent E. coli BL21(DE3) cells (Novagen, USA) carrying either the expression vector pETSOD1(A4V)-GFP, which produces SOD1(A4V)-GFP under control of the strong bacteriophage T7 promoter, or pETAβ42-GFP, which produces Aβ42-GFP under control of the T7 promoter, were co-transformed with the combined pSICLOPPS-NuX1X2X3-X5 vector library. Approximately 10^8 transformants carrying both the vector library and either pETSOD1(A4V)-GFP or pETAβ42-GFP vectors were harvested, pooled together, and grown in Luria-Bertani (LB) liquid medium containing either 0.005% (pETSOD1(A4F)-GFP) or 0.002% (pETAβ42-GFP) L-arabinose—the inducer of cyclic peptide production—at 37° C. with shaking. When the optical density at 600 nm (OD600) of the bacterial culture was about 0.5, 0.01 (pETSOD1(A4F)-GFP) or 0.1 (pETAβ42-GFP) mM isopropyl-β-D-thiogalactoside (IPTG) was added to the medium to induce overexpression of the reporter. […] The isolated cells were re-grown and screened for additional rounds in an identical manner until the desired enrichment in high-fluorescence clones was achieved.
For SOD1 or SOD1-GFP production, BL21(DE3) (Novagen, USA) or Origami 2(DE3) cells (Novagen, USA) were transformed with the corresponding SOD1- or SOD1-GFP-encoding vector, either with the appropriate pSICLOPPS vector or alone. […]
Bacterial cells corresponding to 1 mL culture with OD600=1 were harvested by centrifugation and re-suspended in 100 μL phosphate-buffered saline (PBS), transferred to a 96-well FLUOTRAC 200 plate (Greiner Bio One International, Austria), and their fluorescence was measured using a TECAN Safire II-Basic plate reader (Tecan, Austria). Excitation was set at 488 nm and emission was measured at 510 nm.

T2 sequence (P00441 whole entry A5V): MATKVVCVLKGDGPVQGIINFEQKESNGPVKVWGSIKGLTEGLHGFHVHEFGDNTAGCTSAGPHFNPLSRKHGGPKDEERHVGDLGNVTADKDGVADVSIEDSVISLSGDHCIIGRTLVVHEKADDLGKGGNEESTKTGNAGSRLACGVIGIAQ

Row | Substance | Reads/Total hexapeptide reads (%) ([1]; Table 4) | Reads/Total peptide reads (%) ([1]; Table 4) | Number of reads ([1]; Table 4, hexapeptides) | Normalized read number (%) [1] [%] | other results
1 | TPCWFD [AβC6-46] | 0.056 | 0.006 | 252 | – | –
2 | TPGLVD [AβC6-58] | 0.031 | 0.003 | 142 | – | –
3 | TPGWFD [AβC6-55] | 0.040 | 0.004 | 180 | – | –
4 | TPIVFD [AβC6-36] | 0.085 | 0.008 | 384 | – | –
5 | TPLWFN [AβC6-40] | 0.070 | 0.007 | 316 | – | –
6 | TPPWFD [AβC6-44] | 0.064 | 0.006 | 289 | – | –
7 | TPSWFD [AβC6-65] | 0.023 | 0.002 | 105 | – | –
8 | TPVLVD [AβC6-48] | 0.052 | 0.005 | 236 | – | –
9 | TPVWFD [AβC6-1] | 29.151 | 2.912 | 131,935 | – | –
10 | TPVWLD [AβC6-80] | 0.012 | 0.001 | 55 | – | –
11 | TSVEYE [AβC6-41] | 0.068 | 0.007 | 307 | – | –
12 | TVTWFD [AβC6-6] | 3.778 | 0.377 | 17,100 | – | –
13 | cyclo-SHSPT [AβC5-387] | – | – | – | – | Reads/Total SASPT-like reads (%) ([1]; Table 2): 0.337%; Reads/Total pentapeptide reads (%) ([1]; Table 2): 0.002%; Reads/Total peptide reads (%) ([1]; Table 2): 0.002%; Number of reads ([1]; Table 2): 89
14 | cyclo-SICPT [AβC5-216] | – | – | – | – | Reads/Total SASPT-like reads (%) ([1]; Table 2): 1.957%; Reads/Total pentapeptide reads (%) ([1]; Table 2): 0.013%; Reads/Total peptide reads (%) ([1]; Table 2): 0.011%; Number of reads ([1]; Table 2): 516
15 | cyclo-SITPT [AβC5-380] | – | – | – | – | Reads/Total SASPT-like reads (%) ([1]; Table 2): 0.356%; Reads/Total pentapeptide reads (%) ([1]; Table 2): 0.002%; Reads/Total peptide reads (%) ([1]; Table 2): 0.002%; Number of reads ([1]; Table 2): 94
16 | cyclo-TASFW (cyclic) | – | – | – | – | SOD1(A4V)-GFP fluorescence of E. coli cells [2]: highest levels of cellular SOD1(A4V)-GFP fluorescence
17 | cyclo-TDQR (cyclic) [AβC4B-9] | – | – | – | 2.09 | –
18 | cyclo-TFSMW (cyclic) | – | – | – | – | SOD1(A4V)-GFP fluorescence of E. coli cells [2]: highest levels of cellular SOD1(A4V)-GFP fluorescence
19 | cyclo-TLGR (cyclic) [AβC4B-86] | – | – | – | 0.1697 | –
20 | cyclo-TLIR (cyclic) [AβC4B-41] | – | – | – | 0.775 | –
21 | cyclo-TLWR (cyclic) [AβC4B-80] | – | – | – | 0.2568 | –
22 | cyclo-TRGR [AβC4-34] | – | – | – | 0.3047 | –
23 | cyclo-TRRR (cyclic) [AβC4-41] | – | – | – | 0.2467 | –
24 | cyclo-TTCR (cyclic) [AβC4-9] | – | – | – | 1.248 | –
25 | cyclo-TTGR [AβC4-35] | – | – | – | 0.295 | –
26 | cyclo-TTRR (cyclic) [AβC4-11] | – | – | – | 1.2 | –
27 | cyclo-TTSR (cyclic) [AβC4-31] | – | – | – | 0.3241 | –
